B1: CCND1 (parent)
chain: IRRAYPDANLLNDRVLRAMLKAEE
B2: SPDEF (parent)
chain: FQELAGKELCAMSEEQFRQRSPLG

Variants of: B1
Assay: protein stability index of a GFP-peptide fusion (GPS, HEK-293T) (PSI 1-6); higher = more stable
Conditions: c terminus: a fixed tail appended
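Note: lentivirally expressed fusions sorted by FACS into six bins by GFP to DsRed ratio, PSI derived from sequencing read proportions per bin multiplied by bin number.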

Protein stability index: each site, then its substitutions
A22: V 2.21, R 2.3, L 1.78, N 2.86, P 3.69, S 2.37, Q 2.64, Y 2.43, W 2.74, T 2.8, M 2.41
E23: V 1.8, S 2.3, N 2.18, R 2.37, Y 2.45, T 2.61, Q 3.18, I 1.21, M 2.3, A 1.87, D 2.42, L 3.39, H 1.62, F 1.62, C 1.92, W 1.84, K 2.75
E24: V 1.23, R 2.02, P 2.39, M 1.87, F 1.55, Y 1.35, A 3.57, K 2.05, N 2.7, L 1.8, D 2.67, C 2.08, I 3, S 3.28, T 2.33, W 1.52, H 2.04

Variants of: B2
Assay: as above
Conditions: c terminus: a fixed tail appended

Protein stability index: each site, then its substitutions
A5: C 2.69, R 2.17, T 2.46, E 3.83, I 2.47, H 2.73, P 3.58, F 2.5, L 1.82, Y 2.6, M 2.58, W 1.9, D 3.71, S 2.24, Q 3.32, N 2.82, K 3.27, G 2.88, V 3.44
Q2: E 4.17, S 2.55, I 2.17, R 3.32, P 2.86, F 3.35, Y 2.96, D 4.74, H 2.57, M 2.65, K 3.61, T 1.94, W 2.14, L 2.12, A 2.07, G 2.44, V 2.73, C 2.36, N 4.11
L4: S 4.01, Q 3.91, R 3, K 3.59, M 2.6, V 3.85, I 3.15, A 3.35, C 4.02, H 3.85, N 3.8, Y 2.61, P 3.99, W 2.4, T 3.94, D 4.38, G 3.97, E 4.48, F 2.84
E3: S 2.34, H 3.36, N 3.09, C 2.48, W 1.72, V 2.44, F 1.95, K 3.3, D 2.1, P 2.64, Y 2.69, R 3.33, Q 3.45, M 1.79, G 2.11, I 2.55, T 2.22, L 2.22, A 3.06
K7: C 1.99, E 3.66, F 2.18, G 3, H 2.86, D 4.25, A 2.58, I 1.81
G6: D 3.62, A 2.4, I 2.69, S 2.53, P 3.7, N 3.4, F 1.84, L 2.44, M 2.46, E 4.18, K 3.03, T 3.32, W 2.65, Y 1.9, R 2.58, C 2.28, V 1.68, Q 2.68, H 2.73
F1: L 4.45, N 4.72, Y 3.02, C 3.9, W 2.93, T 4.55, V 4.27, A 4.29, M 3.98, H 4.02, S 4.61, D 4.94, P 4.49, K 4.58, G 4.57, E 5.36, I 3.88, Q 4.93, R 4.99

— the supplement of paper PMC10567573
